For two substances, KD (mutant/parent), Kd and fold lower affinity than to full length human α-CGRP results are on record in patent US20170037117A1, “COMPOSITIONS AND METHODS FOR TREATING METABOLIC DISORDERS” (Salk Institute for Biological Studies, priority 2014, published 2017).

The target of assay [1] is human α-CGRP V28A (25-37) (human). In words: Biacore SPR 25 C, Fab over peptide on SA chip; ratio to parent 25-37. On the technique in general: Surface plasmon resonance follows binding to a sensor surface in real time, without labels.
The target of assay [2] is human α-CGRP F27A (25-37) (human). The assay is described as above.
The target of assay [3] is human α-CGRP K35A (19-37) (human). In words: Biacore SPR 25 C, Fab over peptide on SA chip; ratio to parent 19-37.
Assay [4] deals with human α-CGRP 1-37 (WT) (human). Kind of assay: Biacore, 25 C, Fab over biotin-CGRP on SA chip.
Sequence of human α-CGRP 1-37 (WT) (human) (peptide, as listed by the source): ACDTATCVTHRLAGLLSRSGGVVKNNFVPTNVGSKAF
For assay [5], the target named is human α-CGRP 1-37 (WT) (human). In words: Biacore, 37 C, Fab over biotin-CGRP on SA chip.
For a further assay, the target named is rat α-CGRP (1-37) (rat). Kind of assay: Biacore, 37 C, Fab over biotin-CGRP on SA chip.
Sequence of rat α-CGRP (1-37) (rat) (peptide, as listed by the source): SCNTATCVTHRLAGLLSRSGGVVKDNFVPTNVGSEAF
Assay [6] deals with human α-CGRP N31A (25-37) (human). Kind of assay: Biacore SPR 25 C, Fab over peptide on SA chip; ratio to parent 25-37.
In assay [7] the target is human α-CGRP P29A (25-37) (human). The assay is described as above.
Assay [8] has as its target human α-CGRP S34A (25-37) (human). The description is as above.
Assay [9] addresses human α-CGRP V32A (25-37) (human). Described as above.
For assay [10], the target named is human α-CGRP T30A (25-37) (human). Described as above.
In assay [11] the target is human α-CGRP G33A (25-37) (human). The description is as above.
The target of assay [12] is human α-CGRP 1-37 (WT) (human). In words: Biacore SPR 25 C, Fab over N-biotinylated peptide on SA chip.
The target in assay [13] is human α-CGRP fragment 25-37 (human). Kind of assay: Biacore SPR 25 C, Fab over N-biotinylated peptide on SA chip; mean ± SD of two measurements on different chips.
Assay [14] deals with human α-CGRP fragment 19-37 (human). Described as above.
For assay [15], the target named is human α-CGRP fragment 25-37 (human). In words: Biacore, 25 C, Fab over biotin-fragment on SA chip.

For the substance “murine anti-CGRP monoclonal antibody 7E9, Fab fragment”, the KD (mutant/parent) in assay [1] and in assay [2] was 1 throughout.

The Kd is the concentration at which binding is half-saturated. A higher Kd goes with lower affinity. On to “anti-CGRP monoclonal antibody 4901, Fab fragment”, for which the KD (mutant/parent) was found to be 0.3 in assay [3]; 0.3 in [6]; 0.2 in assay [7]; 0.8 in assay [1]; 0.8 in assay [8]; 0.9 in assay [9]. In addition, the KD (mutant/parent) in assay [10] came out at 0.2; in assay [2], 0.8; in assay [11] it was 1.3. Further, the Kd is 0.061 µM in assay [4]; 0.139 µM in [5]; 0.0034 µM with rat α-CGRP (1-37) (rat); 0.0605 µM in assay [12]; 0.296 µM in assay [13]; 0.052 µM in assay [14]. Besides, the fold lower affinity than to full length human α-CGRP in assay [15] came to 6 fold.
